Data: PMC4615894

Biological target: CENP-W (Xenopus (endogenous in egg extract))
Experiment: co-IP

percent co-depleted: 80%
Substance: CENP-C (natural protein)
